Experimental data reported in publication PMC3081313, “Factors Defining the Functional Oligomeric State of Escherichia coli DegP Protease” (PLoS ONE, 2011).

B1: PZ model peptide P^+Z^+ (peptide)
peptide: ALVLDMMYGGMRGYQV
notes: also called PepP^+Z^+; source: synthetic peptide (GenScript USA Inc.)
B2: PZ model peptide P^−Z^+ (peptide)
peptide: ALELDMMYGGMRGYQV
notes: as P^+Z^+ but the P motif altered from ALV to ALE; source: synthetic peptide (GenScript USA Inc.)
B3: proteolytically inactive DegP_(S210A) (enzyme, Escherichia coli, UniProt P0C0V0 27-474, looked up)
chain: AETSSATTAQQMPSLAPMLEKVMPSVVSINVEGSTTVNTPRMPRNFQQFFGDDSPFCQEGSPFQSSPFCQGGQGGNGGGQQQKFMALGSGVIIDADKGYVVTNNHVVDNATVIKVQLSDGRKFDAKMVGKDPRSDIALIQIQNPKNLTAIKMADSDALRVGDYTVAIGNPFGLGETVTSGIVSALGRSGLNAENYENFIQTDAAINRGNAGGALVNLNGELIGINTAILAPDGGNIGIGFAIPSNMVKNLTSQMVEYGQVKRGELGIMGTELNSELAKAMKVDAQRGAFVSQVLPNSSAAKAGIKAGDVITSLNGKPISSFAALRAQVGTMPVGSKLTLGLLRDGKQVNVNLELQQSSQNQVDSSSIFNGIEGAEMSNKGKDQGVVVNNVKTGTPAAQIGLKKGDVIIGANQQAVKNIAELRKVLDSKPSVLALNIQRGDSTIYLLMQ
notes: Escherichia coli DegP (HtrA, protease Do), periplasmic protease and chaperone, with the active-site change S210A; Number of copies depends on the sample: hexamer alone, 12-mer or 24-mer with substrate; also called HtrA_(S210A); DegP6

Legend:
[1] = target: B3; test: SEC; DegP_(S210A) (94 µM) mixed with P^+Z^+ peptide (376 µM), 37°C 10 min; Superdex 200 in 50 mM HEPES pH 7.3, 150 mM NaCl at 4°C; details: both partners purified
[2] = target: B3; test: SEC; DegP_(S210A) (94 µM) mixed with P^−Z^+ peptide (376 µM), 37°C 10 min; Superdex 200 in 50 mM HEPES pH 7.3, 150 mM NaCl at 4°C; details: both partners purified
[3] = target: the molecule itself; test: SEC; DegP_(S210A) (42 µM) mixed with full-length β-casein (42 µM; also in molar excess), 37°C 10 min in 50 mM HEPES pH 7.3; Superdex 200 in 50 mM HEPES pH 7.3, 150 mM NaCl at 4°C; peak fractions on SDS-PAGE
[4] = target: the molecule itself; test: SEC; DegP_(S210A) alone (42 µM monomer), incubated in 50 mM HEPES pH 7.3 at 37°C for 10 min; Superdex 200 10/300 GL in 50 mM HEPES pH 7.3, 150 mM NaCl at 4°C
[5] = target: the molecule itself; test: SEC; DegP_(S210A) mixed with MDH peptide fragments, 37°C 10 min; Superdex 200 in 50 mM HEPES pH 7.3, 150 mM NaCl at 4°C

## B1
[1]
  binding result: binds

## B2
[2]
  binding result: binds

## B3
[3]
  stoichiometry N: 24
[4]
  stoichiometry N: 6
[5]
  stoichiometry N: 12
